Reference: article PMC3986562

Assays:
G-Actin = G-Actin (UniProt P68135)
F-Actin [1] = target: F-Actin (UniProt P68135); test: co-sedimentation; Actin pre-polymerized, sedimentated and then incubated with Simiate or the control protein; 100,000 g for 1 h; supernatant and pellet by SDS-PAGE
F-Actin [2] = target: F-Actin (UniProt P68135); test: co-sedimentation; G-Actin polymerized 2.5 h at 25°C in polymerization buffer (5 mM Tris pH 8.0, 0.2 mM CaCl2, 1 mM ATP, 0.5 mM DTT, 5 mM KCl, 2 mM MgCl2) with equal amounts (0.125 μg/μl) of Simiate or GST; 100,000 g for 1 h; supernatant and pellet by SDS-PAGE

decrease in amount of Actin polymerized after a period of 3 h (sedimentation assay), against Actin alone (G-Actin): 29% | percent of the total Simiate content in the sediment (F-Actin [1]): 50.8% | percent of the total Simiate content in the sediment (F-Actin [2]): 51.4%
Substance: recombinant Simiate (natural protein)
